Results as given in PMC8035321.

Molecular target: mouse MOCCI^FLAG (Modulator of cytochrome C oxidase during Inflammation, FLAG-tagged) (mouse)
Assay: co-IP; anti-FLAG M2 beads on total mouse heart mitochondria (AAV-MOCCI; AAV-GFP as negative control) solubilised with 1% digitonin in IP buffer (50 mM HEPES-KOH, 150 mM NaCl, 1 mM EDTA, pH 7.4), 4 °C; elution with 3X FLAG peptide; immunoblotting

For “MTCO-1, the catalytic subunit of CIV (cytochrome C oxidase) (from UniProt P00397 1-514) (natural protein)”, the enrichment in the anti-FLAG immunoprecipitate was 231%.
